Measurements from the Human Domainome abundance scans (Beltran et al. 2025).

B1: Neutrophil cytosol factor 2, residues 456 to 514; numbered along this chain, P19878 (parent)
chain: LKKGSQVEALFSYEATQPEDLEFQEGDIILVLSKVNEEWLEGECKGKVGIFPKVFVEDC

Variants of: B1
Assay: abundance fitness (aPCA) (normalised: wild type 0, dead -1); higher = more abundant; growth selection in yeast, the domain comes from the species named
Settings: Homo sapiens

Abundance fitness of substitutions, site by site:
P52: S -0.585; F -0.459; T -0.341; Q -0.645; K -0.559; C -0.51; R -0.918; L -0.094; A -0.305; Y -0.738; W -0.953; E -0.642; I -0.766; D -0.479; M -0.253; G -0.215; V -0.598
E57: D -0.254; P -0.28; H -0.084; K 0.201; I -0.697; T 0.487; W -0.033; M -0.464; Q 0.541; C -0.15; R 0.865; N -0.194; S 0.271; G 0.005; V -0.198; L -0.505; F -0.607
V56: C -0.52; Y -0.574; Q -0.581; N -0.439; D -0.412; T -0.457; H -0.624; R -0.637; I -0.81; P -1.09; E -0.415; F -0.255; A -0.719; K -0.637; L -0.589; W -0.46; G -0.713
F55: V 0.271; I -0.599; D -0.409; T -0.133; L 0.207; P -0.145; N -0.522; G -0.486; E -0.821; C 0.597; A 0.034; R -0.521; K -0.584; W -0.529; H -0.229; Y 0.152; M 0.111; S -0.753
K53: S -0.39; M -0.549; L -0.749; T -0.707; I -0.865; Y -0.722; V -0.536; H -0.928
